Literature values as cited in paper PMC4581962.

Target: IL-6Rα (Homo sapiens) (UniProt P08887)
Chain of UniProt P08887 (P08887 20-355): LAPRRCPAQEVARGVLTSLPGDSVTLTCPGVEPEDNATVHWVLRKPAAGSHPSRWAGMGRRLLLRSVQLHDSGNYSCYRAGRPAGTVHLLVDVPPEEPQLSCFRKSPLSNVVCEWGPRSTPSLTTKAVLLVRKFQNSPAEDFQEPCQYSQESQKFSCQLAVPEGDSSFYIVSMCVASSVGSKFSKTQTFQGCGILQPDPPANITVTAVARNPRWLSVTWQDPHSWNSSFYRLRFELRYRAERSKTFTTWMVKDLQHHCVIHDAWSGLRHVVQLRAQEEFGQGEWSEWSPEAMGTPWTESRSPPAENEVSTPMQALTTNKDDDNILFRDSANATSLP

Kd: 9 nM
Substance: IL-6 (from UniProt P05231)
